Laboratory results: PMC314469, “Protein Interaction Networks by Proteome Peptide Scanning” (PLoS Biology, 2004)

T1: Myo5 SH3 (MYO5_YEAST), Q04439
T1 chain: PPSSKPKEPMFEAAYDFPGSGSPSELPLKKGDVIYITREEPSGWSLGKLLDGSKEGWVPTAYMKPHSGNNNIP


Molecular target: T1, Myo5 SH3 (MYO5_YEAST), Q04439
Experiment: SPOT array

| normalised SPOT signal, Boehringer light units (BLU); mean over the file's lines of this peptide | Binder |
| --- | --- |
| 189 | ELAEFTDPSSPVSE [YNL278W 118-131] |
| 181 | ALDNFTLPGTPGFP [YLR370C 101-114] |
| 220 | DLIHLDSPQQPNGY [YPL020C 565-578] |
| 173 | DFPLYKSPAFPSSS [YPR039W 19-32] |
| 49.8 | EAGDFEQPKGPAGA [YPL127C 99-112] |
| 81.6 | EETEMLAPKLPEEN [YNR028W 128-141] |
| 128 | EEMGMEEPQAPEAF [YPL176C 44-57] |
| 139 | DLMALKYPYFPTKM [YNL059C 225-238] |
| 126 | DLKEFNGPEPPIKR [YNL286W 144-157] |
| 101 | ALGFYRAPGSPAPA [YMR069W 242-255] |
| 179 | DARPFLQPVDPVKL [YLR399C 169-182] |
| 166 | ALRKFGYPFSPNDP [YPR097W 38-51] |
| 215 | EPEPLMSPVPPSSA [YMR313C 491-504] |
| 131 | ALDYLIPPPMPKNQ [YOL135C 61-74] |
| 98.8 | DPSLYQIPEPPRGG [YOR307C 21-34] |
| 83.1 | APLLYSSPSEPMAY [YMR055C 139-152] |
| 212 | DFNKFERPNIPVEE [YPL242C 282-295] |
| 7750 | APAPPPPPQMPAT [YOR181W 519-531] |
| 57.4 | ELLSFLSPGKPSKG [YML005W 159-172] |
| 152 | DFIKLMNPTLPSLK [YNL118C 54-67] |
| 294 | ELRTLFVPLIPSVT [YLR454W 1338-1351] |

Second part, the binder before the results:

| Binder | normalised SPOT signal, Boehringer light units (BLU); mean over the file's lines of this peptide |
| --- | --- |
| DELLLMSPELPADL [YHR186C 271-284] | 16 |
| DEFTLDLPRIPSLE [YBR123C 27-40] | 181 |
| ELEDFAFPDTPTIV [YBR221C 343-356] | 255 |
| ALKEMTHPIKPSAQ [YLR239C 27-40] | 261 |
| ELYYLNDPKYPGTK [YGR154C 125-138] | 0 |
| ELRKLVQPITPIIK [YGR062C 88-101] | 170 |
| APKKWKAPKGPKPT [YGL099W 6-19] | 1010 |
| APPALSAPSIPPVP [YJL020C 739-752] | 10800 |
| DLSVHTSPHGPIGS [YGR068C 274-287] | 186 |
| AFHELGIPVIPNPS [YDR232W 404-417] | 193 |
| ALNNWILPSTPHIQ [YHR197W 533-546] | 169 |
| APQPHLLPWLPPTD [YDL019C 1187-1200] | 117 |
| ELRDLDIPLVPSPK [YLR131C 69-82] | 75.3 |
| ALGIFFAPESPWWL [YDL247W 284-297] | 229 |
| EADGLVQPVVPDKV [YER036C 364-377] | 75.1 |
| DFVTLHVPATPETE [YER081W 252-265] | 190 |
| DFSSYGPPGTPGYD [YLR342W 92-105] | 108 |
| DFRLHYYPKDPSNV [YER172C 104-117] | 77.7 |
| EPATLPLPGTPTLA [YKR041W 168-181] | 61.8 |

| Binder | normalised SPOT signal, Boehringer light units (BLU); mean over the file's lines of this peptide |
| --- | --- |
| DLLGLSTPQSPTNS [YHR108W 433-446] | 91.9 |
| EFDMLLLPFIPSID [YHR109W 353-366] | 249 |
| APKYYVPPGIPTND [YJL020C 199-212] | 10400 |
| EAYRLNYPELPRLT [YLR073C 184-197] | 125 |
| DPNQLSTPPTPKSA [YGR070W 171-184] | 166 |
| EAHQHHQPPEPQPY [YDR432W 85-98] | 0 |
| DPNAYMQPQVPVQM [YIL109C 92-105] | 160 |
| APPALSAPSVPPVP [YJL020C 718-731] | 6580 |
| EARPYSEPSEPEDS [YER162C 705-718] | 208 |
| EAFKLPKPWSPNSH [YHR036W 272-285] | 141 |
| EAIKLGVPKGPLFA [YKR079C 211-224] | 130 |
| DARPFLKPVDPIAL [YDL070W 154-167] | 126 |
| DLSYYLRPIKPFNT [Q0115 378-391] | 161 |
| ALKSLSNPSSPWQQ [YDR283C 993-1006] | 30.3 |
| AFHFWRPPIAPAEM [YDR230W 49-62] | 1960 |
| ALYHLSNPNVPKLW [YBR112C 140-153] | 196 |
| EFSPHSTPVTPRRL [YGL003C 167-180] | 114 |
| ELFTFDMPTDPSSF [YCR091W 173-186] | 44.9 |
